Target: T1, NG2 (nerve/glial antigen 2) proteoglycan (human (endogenous in HuAoSMC and G361), UniProt Q6UVK1 30-2322)
T1 construct: NG2 proteoglycan (CSPG4), transmembrane surface proteoglycan, endogenous on human cells; also called high-molecular melanoma associated antigen; CSPG4; source: endogenous, on human aortic smooth muscle cells (HuAoSMC) and G361-melanoma cells
Test: radioligand binding; increasing concentrations of 123I-tTF-TAA on cultivated HuAoSMC, gamma counter; nonlinear fit of total binding (GraphPad Prism 6: one site - total binding), an approximation
Settings: one partner purified

T1 sequence (Q6UVK1 30-2322): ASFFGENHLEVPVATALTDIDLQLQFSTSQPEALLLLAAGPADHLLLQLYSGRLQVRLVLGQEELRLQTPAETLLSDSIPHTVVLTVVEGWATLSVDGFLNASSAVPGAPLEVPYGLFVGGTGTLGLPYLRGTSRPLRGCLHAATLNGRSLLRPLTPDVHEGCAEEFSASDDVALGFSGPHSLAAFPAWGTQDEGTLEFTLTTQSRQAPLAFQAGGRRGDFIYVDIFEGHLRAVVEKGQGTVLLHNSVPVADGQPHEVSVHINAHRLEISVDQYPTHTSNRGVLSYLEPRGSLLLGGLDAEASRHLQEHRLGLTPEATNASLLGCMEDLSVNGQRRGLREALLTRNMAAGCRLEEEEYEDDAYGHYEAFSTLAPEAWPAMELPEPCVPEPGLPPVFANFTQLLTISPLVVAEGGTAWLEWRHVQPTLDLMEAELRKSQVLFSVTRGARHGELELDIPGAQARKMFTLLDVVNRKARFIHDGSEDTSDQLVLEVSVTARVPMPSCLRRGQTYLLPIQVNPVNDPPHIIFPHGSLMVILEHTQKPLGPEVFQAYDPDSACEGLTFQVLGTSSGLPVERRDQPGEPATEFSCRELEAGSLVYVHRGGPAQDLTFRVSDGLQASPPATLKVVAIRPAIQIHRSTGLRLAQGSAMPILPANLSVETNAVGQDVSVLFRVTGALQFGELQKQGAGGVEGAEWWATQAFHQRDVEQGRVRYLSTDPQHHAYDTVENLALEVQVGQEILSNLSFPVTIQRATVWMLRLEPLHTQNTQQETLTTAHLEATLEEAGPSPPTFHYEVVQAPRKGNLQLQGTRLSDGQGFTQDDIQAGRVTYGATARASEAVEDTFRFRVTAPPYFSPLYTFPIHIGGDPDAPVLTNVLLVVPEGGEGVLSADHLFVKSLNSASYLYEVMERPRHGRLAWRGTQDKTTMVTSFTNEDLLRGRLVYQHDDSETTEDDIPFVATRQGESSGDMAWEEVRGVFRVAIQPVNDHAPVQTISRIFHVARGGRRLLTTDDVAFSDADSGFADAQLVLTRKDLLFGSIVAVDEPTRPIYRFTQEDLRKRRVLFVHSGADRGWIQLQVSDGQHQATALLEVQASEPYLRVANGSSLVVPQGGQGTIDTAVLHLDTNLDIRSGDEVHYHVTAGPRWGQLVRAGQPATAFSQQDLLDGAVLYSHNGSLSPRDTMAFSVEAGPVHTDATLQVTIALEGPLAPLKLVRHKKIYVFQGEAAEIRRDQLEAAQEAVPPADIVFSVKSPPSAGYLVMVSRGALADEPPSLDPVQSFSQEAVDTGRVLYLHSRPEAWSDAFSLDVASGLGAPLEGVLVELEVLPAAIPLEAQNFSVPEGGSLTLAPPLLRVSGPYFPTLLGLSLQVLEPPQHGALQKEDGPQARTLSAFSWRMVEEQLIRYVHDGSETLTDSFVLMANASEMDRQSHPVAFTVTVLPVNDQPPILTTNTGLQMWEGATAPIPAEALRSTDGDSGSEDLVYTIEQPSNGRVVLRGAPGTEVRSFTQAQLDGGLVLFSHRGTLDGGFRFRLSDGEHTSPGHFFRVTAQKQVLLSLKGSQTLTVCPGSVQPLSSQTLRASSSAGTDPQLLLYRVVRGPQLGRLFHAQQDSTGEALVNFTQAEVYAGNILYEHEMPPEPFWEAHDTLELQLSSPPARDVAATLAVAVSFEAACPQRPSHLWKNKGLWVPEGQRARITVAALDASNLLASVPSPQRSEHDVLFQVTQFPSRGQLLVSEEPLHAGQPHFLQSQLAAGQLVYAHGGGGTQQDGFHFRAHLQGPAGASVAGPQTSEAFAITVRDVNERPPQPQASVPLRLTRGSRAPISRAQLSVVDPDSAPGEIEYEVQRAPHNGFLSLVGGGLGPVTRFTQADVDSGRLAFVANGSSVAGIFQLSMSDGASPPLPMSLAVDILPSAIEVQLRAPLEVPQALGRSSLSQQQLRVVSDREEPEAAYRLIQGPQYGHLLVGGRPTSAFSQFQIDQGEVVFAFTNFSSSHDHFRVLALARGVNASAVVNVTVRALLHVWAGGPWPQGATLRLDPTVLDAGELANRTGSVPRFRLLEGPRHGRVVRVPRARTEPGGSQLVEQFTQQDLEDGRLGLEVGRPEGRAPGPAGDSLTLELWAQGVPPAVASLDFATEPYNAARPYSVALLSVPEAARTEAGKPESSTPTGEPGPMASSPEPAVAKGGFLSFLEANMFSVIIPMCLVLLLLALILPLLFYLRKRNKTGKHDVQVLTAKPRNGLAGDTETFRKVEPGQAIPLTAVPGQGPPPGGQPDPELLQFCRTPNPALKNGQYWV

- Kd: ~785 nM
B1: 123I-tTF218-TAA (other)
chain: SGTTNTVAAYNLTWKSTNFKTILEWEPKPVNQVYTVQISTKSGDWKSKCFYTTDTECDLTDEIVKDVKQTYLARVFSYPAGNVESTGSAGEPLYENSPEFTPYLETNLGQPTIQSFEQVGTKVNVTVEDERTLVRRNNTFLSLRDVFGKDLIYTLYYWKSSSSGKKTAKTNTNEFLIDVDKGENYCFSVQAVIPSRTVNRKSTDSPVECMGQEKGEFRTAASGVRSMH
modifications: 123I (iodinated; residues not stated)
